The nature of the data set: amyloid nucleation score (Sup35N fusion, yeast selection) (log enrichment); library NNK2; higher = more nucleation; inactive = no reads after selection. A digest of the protocol: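 For the nucleation score, DiMSum gave the log enrichment of output over input reads, centred on the mode score of non-aggregating sequences. Psi-negative yeast expressing Sup35N fused to peptides of 20 random codons were induced with 100 μM copper sulfate for 24 hours and grown 7 days at 30°C on medium lacking adenine and uracil. Input and output plasmid inserts were Illumina-sequenced, and sequences with under 100 input reads were excluded.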

± gives the uncertainty stated by the source.

The results in this text go back to the supplement of paper PMC12042874.

For the substance CVGNNMCSGKNF, the amyloid nucleation score entry is “inactive”. As to FGHNGRICKRLMEVPIFERA, the amyloid nucleation score is -0.655 ± 0.32.

In the case of VFWLNGWYCYI, the amyloid nucleation score was determined as 3.65 ± 0.056. Substance CTFSVF yielded an amyloid nucleation score of -1.71 ± 0.48. Regarding GTSDSWTNVGRHYLKGVRDG, the amyloid nucleation score is -1.08 ± 0.55.

VTIER registered an amyloid nucleation score of 0.319 ± 0.33. In the case of TVCFDSLNHITSFIRGRFSL, the amyloid nucleation score entry is “inactive”. On to RKVSSARNSVIATSMSNNSV, for which the amyloid nucleation score was -1.61 ± 0.54. On to RHDLWAPRTERMMVYMCTAA, for which the amyloid nucleation score was found to be 0.544 ± 0.26.

On to LYFRVNDEGVHFTCEGQKKE, for which the amyloid nucleation score was 1.46 ± 0.17. Take CRDSPVKNQGPYLGFM: the amyloid nucleation score result was “inactive”. With SVFKMNEGFGNEHSNAPMRG, the amyloid nucleation score entry is “inactive”. Next, FSTRGSAMLRVAGLSGPRAS: 0.29 ± 0.43; NVLLKNLESPIFYRDMTTL: -0.252 ± 0.76; MVMANHRSYRY: 7.663 ± 0.026. Next, IYTWSIRIYRF: -0.778 ± 0.48; PSFTLMDVFRI: 0.701 ± 0.26. ILISVRNYIKSEKSRNSYHK: the amyloid nucleation score was found to be 7.673 ± 0.03. Next, VTDCMSVRITLLMCSHGFKH: 7.302 ± 0.063; SYNTHQLSRSPF: -0.131 ± 0.23. Regarding AISVKKWSFHEKKRNTMLT, the amyloid nucleation score is -0.027 ± 0.28. Next, RGLRDLMCLRPLRLASSQPP: “inactive”; SMYVN: -0.384 ± 0.56. Substance SYYMISY yielded an amyloid nucleation score of 2.05 ± 0.12. On to HVNWVKKSSWLIGT, for which the amyloid nucleation score was 0.62 ± 0.74. FREVRRF: the amyloid nucleation score came out at 0.631 ± 0.41. Substance LFLFGSV returned an amyloid nucleation score of 0.28 ± 0.62. HFGDIDKYRAADAGVVERNP displayed an amyloid nucleation score of 4.25 ± 0.083.

As to FWLGSVVGNSCAWVITWAIL, the amyloid nucleation score is -0.036 ± 0.44. Substance NFKYHCRYWFFVFAKFKFHL displayed an amyloid nucleation score of -1.42 ± 0.75. Next, ASGKWHSCAGSGDYM: -0.453 ± 0.33; RHTFLVSAGYKERMVGMTSG: -1.12 ± 0.63. Next, SLAYRFRWKLGNKVKF: 2.02 ± 0.1; LSLLSFGISASFVV: -1.18 ± 0.41. Next, VTRSVSPHSSPYAFYYFNIS: “inactive”. DYFFPWENSGCIRRSLTVG had an amyloid nucleation score of -1.35 ± 0.41. Next, MNCVGG: -0.389 ± 0.61; VFNILFSM: 9.098 ± 0.06; WRRTTYYGRDRGQVLGNNAG: -0.009 ± 0.36. Next, DYMTGV: “inactive”; RDRFS: 0.248 ± 0.61; NYLTQCSRSFNFARVDF: -0.003 ± 0.56. Regarding NPSCTRKVLVYSY, the amyloid nucleation score worked out at 0.359 ± 0.43. For the substance RTGSALAHCFCDMQYVAATI, the amyloid nucleation score entry is “inactive”. For the substance GTTCGSSCRVVSLMKENVGA, the amyloid nucleation score is -0.367 ± 0.48.

The substance LYQFSFFGYSYL yielded an amyloid nucleation score of 2.39 ± 0.069. GVVYLGNRLISFSRSLSLKT: the amyloid nucleation score turned out to be 0.387 ± 0.45. Next, ENLSQQMFWFKYAKVWGNVH: -0.724 ± 0.39; NRGWSFKLQWHYSLSYTS: 4 ± 0.084.

Substance QLENMCFFSPLQTYMLDRNW yielded an amyloid nucleation score of -1.47 ± 0.41. The substance HHRIFGMIDELSKVTNIHFG gave an amyloid nucleation score of -0.434 ± 0.74. Consider RHICIFMNRMSYMDLWPALL, for which the amyloid nucleation score result is “inactive”. Next, LMFCTRFSLYTGSWFWSSVT: 1.57 ± 0.18. Take WRDSVDTGISSGKVGGRCSE: the amyloid nucleation score was -0.047 ± 0.27.

In turn, DRVSVVIAGDQKPEFRRGKR showed an amyloid nucleation score of -0.469 ± 0.45. Next, FEAYYWLADLNLLCYLGVRS: 3.79 ± 0.052; LIAKMAIKFKGDAQF: 4.05 ± 0.09.

Take EICLHLQAYAIKQCGLLGTP: the amyloid nucleation score was 0.407 ± 0.26.

In the case of GSTVKYWCMPGSSLLLHCVY, the amyloid nucleation score came out at 0.611 ± 0.66. Take ARSLTKSLARYRGRMQMTGP: the amyloid nucleation score turned out to be 0.929 ± 0.3. Substance KWFLGCRVDHRMRVRMCLQ yielded an amyloid nucleation score of -0.292 ± 0.54. Consider HDGVNCSYRSDSIYIVENTH, for which the amyloid nucleation score entry is “inactive”. In turn, ECFTMSRK registered an amyloid nucleation score of -1.28 ± 0.37.

In turn, VDFTCLYSVNFRIHVYISDM registered an amyloid nucleation score of 2.71 ± 0.2. For YSRGIWCNLDGHERCVSLST, the amyloid nucleation score was -0.266 ± 1.1. Substance NGQFGTSHGMVGTGVSLRG showed an amyloid nucleation score of -0.012 ± 0.65.

On to RVIGVWILIAWQRQV, for which the amyloid nucleation score worked out at 0.822 ± 0.66.

Consider IFENI, for which the amyloid nucleation score result was “inactive”. For the substance VVAPTKLLFKLPMALYVFVG, the amyloid nucleation score is -0.299 ± 0.34. In turn, LEVKARFP yielded an amyloid nucleation score of -0.471 ± 0.45. As for LIFRAVWVVMSHHLTG, the amyloid nucleation score was 0.039 ± 0.42. EKGNVGSQANTLVRCSGLTW: the amyloid nucleation score was 1.17 ± 0.21. Substance FEFVYFVRSIG showed an amyloid nucleation score of -0.129 ± 0.5. Substance YFYPFLCLTKNQLVLSNRRT gave an amyloid nucleation score of 4.47 ± 0.073. Take SSQGLPDNGTRPLGWKYR: the amyloid nucleation score is 0.417 ± 0.4. For the substance LYLSFKGRREFFVIYLKFHS, the amyloid nucleation score result is “inactive”. SMCGSNAFLDTDRDVRHDDF had an amyloid nucleation score of -1.05 ± 0.78.

On to FTRRSGSRLWTRFALGDWVA, for which the amyloid nucleation score entry is “inactive”. Next, LDPCGYVVSSEGMLVIGVPI: 0.209 ± 0.39; SVVVDIKGVDWVVRVLVGKR: -0.484 ± 0.65; FYISKFLAWFIIPSGLFLGN: -1.72 ± 1.1. In the case of MLCRMSAFRLGMRYDTRFLL, the amyloid nucleation score is -0.064 ± 1.1. For the substance NCEVFNGDALWRSFTGRYLM, the amyloid nucleation score was 0.042 ± 1.1.

The substance TLRSETMSDWYSRLHGFVFK gave an amyloid nucleation score of 0.988 ± 0.52. On to YDSLYWCGSWYLGLSWISLR, for which the amyloid nucleation score was -0.953 ± 0.62. In the case of KRSTNWKDC, the amyloid nucleation score was -1.07 ± 0.64.

Turning to NIFEYPGYRRYVCCVGWV, the amyloid nucleation score is 4.551 ± 0.044.

RHRRHLNHYAPTSSMIWTYS showed an amyloid nucleation score of 0.258 ± 0.65. Next, VQNLMYIVISPFDRYGRCGR: 9.735 ± 0.048; TAAGLFISNNHMNYFDAIAY: -1.09 ± 0.78; MFKWHYWVEHNFSTRDNICA: “inactive”. Substance EIWMSLSLNAEISYVYYSQS gave an amyloid nucleation score of -0.658 ± 0.28.

The substance VMRRVVKKQSWYLIKGLSM came in with an amyloid nucleation score of 0.802 ± 0.32. Regarding YVTCRCRYYLSFVIPIFWKR, the amyloid nucleation score was -0.657 ± 0.25. For the substance CECETVSLTFEHWCTRGRLG, the amyloid nucleation score stood at 5.156 ± 0.047. As for RTRLS, the amyloid nucleation score amounted to 0.559 ± 0.21. Next, NFCSMRSKVTCNSDDKFWNH: -1.13 ± 1.1.

IIINFRVAINDWGFLSVSID registered an amyloid nucleation score of 5.515 ± 0.027. Next, IGISLSSRPCYTFFSRLRWI: -0.387 ± 0.38. The substance YYQEHQTRLWIWSQHGLNAI had an amyloid nucleation score of 0.864 ± 0.19. Next, CVLGAVYLHRLTDGCDVKFT: 0.762 ± 0.81; YSSGF: -0.384 ± 0.39. As for SKDRCEVQLGKFTCLFMFDY, the amyloid nucleation score was -1.47 ± 0.55. For HQVLYTIAISFTIELAVIIA, the amyloid nucleation score entry was “inactive”. Substance LWFDLSSTLPQM showed an amyloid nucleation score of 0.396 ± 0.62.

In the case of MRNPYFRHCRFITRRVVFID, the amyloid nucleation score entry was “inactive”. Next, VSLRYRKRQWCYRVKWSITD: -1.36 ± 0.48. For VDCGFRRLFVFTNSIYCVCR, the amyloid nucleation score came to 5.321 ± 0.053. Next, YVQSVHFSSMILQINPGSFN: 4.94 ± 0.065; IVYYG: 0.801 ± 0.38; CDMEHTV: -0.302 ± 0.61.

For LFVYIFVVKVDF, the amyloid nucleation score was 0.959 ± 0.27. RSSQTPFWEIGSMLLSKMCA showed an amyloid nucleation score of 0.65 ± 0.42. Next, SLDQFSFGC: 0.027 ± 0.65. As for GNYPPTFACNSN, the amyloid nucleation score result is “inactive”. CERWRFI: the amyloid nucleation score is -0.02 ± 1.1. Turning to NDFFIFSQEYPYKRMFLQLL, the amyloid nucleation score was -1.35 ± 0.53. ALYLMTFPSRDLIRACEEA showed an amyloid nucleation score of 0.678 ± 0.56. As to NNLTKWLNHWRYFRFSSALE, the amyloid nucleation score is -0.178 ± 0.5. Turning to FVYSVRS, the amyloid nucleation score came to 0.025 ± 0.63.

For GWFMNCTLVVKVTDTEIGLY, the amyloid nucleation score entry was “inactive”. Regarding TKATRINEGLLNLYALFGGK, the amyloid nucleation score is 0.974 ± 0.17. RKRRLMYLSGDNTQPFARLY showed an amyloid nucleation score of -0.686 ± 1.1. In turn, CLMWVISNSYNECHLGEVGQ returned an amyloid nucleation score of 6.56 ± 0.087. Next, QIPVELNNVLNLYLVLCRIE: -0.459 ± 1.1; NLWVCFWSDSCFT: 8.089 ± 0.045; SYGHDWVGKGKVGGIRLM: -0.904 ± 0.49. LKWVYLSSIALTFAPPRRLD had an amyloid nucleation score of 3.63 ± 0.069. In turn, RFQELMTK yielded an amyloid nucleation score of 0.626 ± 0.8. Take PGYPVTFLRRDAYAVREFEF: the amyloid nucleation score is -0.1 ± 1. For CERGLFFVMY, the amyloid nucleation score was -1.15 ± 1.1. LVIRAKYYNPRTWGKFLHPV: the amyloid nucleation score is -0.381 ± 0.28. Next, NCLMLVGNIFWSEESPRLAM: 8.041 ± 0.068; SLWTNTSWSAVVQNNWYGTF: 6.94 ± 0.054; LTHWI: -0.284 ± 0.23. Next, MKSSPA: -0.395 ± 0.32; NACYRFILISSMVRLSFSVW: 0.389 ± 0.8; YFMSRRE: -0.04 ± 0.45. LWDEVAGVAVKI: the amyloid nucleation score worked out at 3.3 ± 0.1. VLCEQHGTGKHSISAEKGHR: the amyloid nucleation score is 1.44 ± 0.41.
